Reference: article doi:10.1101/390104 (bioRxiv, 2018)
Numbering of substitutions follows the chain as printed. Names may count otherwise.

B1: wild type HdeA (natural protein, E. coli, UniProt P0AES9 22-110, looked up)
chain: ADAQKAADNKKPVNSWTCEDFLAVDESFQPTAVGFAEALNNKDKPEDAVLDVQGIATVTPAIVQACTQDKQANFKDKVKGEWDKIKKDM
B2: HdeA mutant with 19F probe incorporated at site 7 (natural protein)
chain: B1 chain with A7W, W16F, W82F
modifications: 5-fluorotryptophan at 7
B3: HdeA mutant with 19F probe incorporated at site 28 (natural protein)
chain: B1 chain with W16F, F28W, W82F
modifications: 5-fluorotryptophan at 28
B4: HdeA mutant with 19F probe incorporated at site 49 (natural protein)
chain: B1 chain with W16F, V49W, W82F
modifications: 5-fluorotryptophan at 49
B5: HdeA mutant with 19F probe incorporated at site 63 (natural protein)
chain: B1 chain with W16F, V63W, W82F
modifications: 5-fluorotryptophan at 63
B6: HdeA mutant with 19F probe incorporated at site 78 (natural protein)
chain: B1 chain with W16F, V78W, W82F
modifications: 5-fluorotryptophan at 78
B7: HdeA mutant with 19F probe incorporated at site 55 (natural protein)
chain: B1 chain with W16F, I55W, W82F
modifications: 5-fluorotryptophan at 55
B8: HdeA mutant with 19F probe incorporated at site 35 (natural protein)
chain: B1 chain with W16F, F35W, W82F
modifications: 5-fluorotryptophan at 35
B9: HdeA mutant with 19F probe incorporated at site 24 (natural protein)
chain: B1 chain with W16F, V24W, W82F
modifications: 5-fluorotryptophan at 24
B10: HdeA-82-fluoro (natural protein)
chain: B1 chain with W16F
modifications: 5-fluorotryptophan at 82
B11: HdeA-F28W mutant (natural protein)
chain: B1 chain with F28W
B12: HdeA-16-fluoro (natural protein)
chain: B1 chain with W82F
modifications: 5-fluorotryptophan at 16

target: T1, MalE (E. coli, UniProt P0AEX9 27-396 = MBP); assay: ITC

Row | Binder | stoichiometry N
1 | B1 | ~0.5

target: T1, MalE; assay: 19F NMR

Row | Binder | binding result
2 | B2 | binds
3 | B3 | binds
4 | B4 | binds
5 | B5 | binds
6 | B6 | binds
7 | B7 | binds
8 | B8 | binds
9 | B9 | binds

Target: the molecule itself
Assay: NMR

Row | Binder | binding result
10 | B1 | binds

target: T1, MalE; assay: NMR

Row | Binder | binding result
11 | B10 | binds
12 | B11 | binds
13 | B12 | binds
